Results: article PMC9784774, “Neutralization Epitopes in Trimer and Pentamer Complexes Recognized by Potent Cytomegalovirus-Neutralizing Human Monoclonal Antibodies” (Microbiology Spectrum, 2022)

Key:
Conditions in all cases: both partners purified
[1] = molecular target: T1, recombinant gH/gL/UL128/UL130/UL131A pentamer (wild type) (Human cytomegalovirus VR1814 (gH strain …, UniProt Q6SW67;F5HCH8;PDB)); assay: SPR; Biacore X100, CM5 chip, RT, 1:1 binding model; methods: antibody (4 μg/mL) captured by anti-human Fc IgG to about 100 RU, pentamer or trimer in five 2-fold dilutions injected at 30 μL/min, 90 s association, 600 s dissociation (the legend of Fig. 5 tells the reverse orientation)
T1 construct: also called CMV pentamer; HCMV pentamer complex; source: HEK293F, cotransfected with gH, gL, UL128, UL130 and UL131A plasmids, purified (Ni-NTA, SEC); not shown: His6, C-terminal, kept; copies: + + + +
T1 sequence (F5HCH8 whole entry, looked up, chain 1 of 2): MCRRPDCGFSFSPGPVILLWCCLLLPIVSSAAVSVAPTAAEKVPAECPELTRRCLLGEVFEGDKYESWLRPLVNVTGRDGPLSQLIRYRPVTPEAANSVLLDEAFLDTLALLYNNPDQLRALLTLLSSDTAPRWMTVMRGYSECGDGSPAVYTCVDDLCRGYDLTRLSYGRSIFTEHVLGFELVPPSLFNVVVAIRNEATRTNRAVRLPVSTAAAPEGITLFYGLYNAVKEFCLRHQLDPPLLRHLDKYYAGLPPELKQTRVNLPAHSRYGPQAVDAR
T1 sequence (Q6SW67 whole entry, looked up, chain 2 of 2): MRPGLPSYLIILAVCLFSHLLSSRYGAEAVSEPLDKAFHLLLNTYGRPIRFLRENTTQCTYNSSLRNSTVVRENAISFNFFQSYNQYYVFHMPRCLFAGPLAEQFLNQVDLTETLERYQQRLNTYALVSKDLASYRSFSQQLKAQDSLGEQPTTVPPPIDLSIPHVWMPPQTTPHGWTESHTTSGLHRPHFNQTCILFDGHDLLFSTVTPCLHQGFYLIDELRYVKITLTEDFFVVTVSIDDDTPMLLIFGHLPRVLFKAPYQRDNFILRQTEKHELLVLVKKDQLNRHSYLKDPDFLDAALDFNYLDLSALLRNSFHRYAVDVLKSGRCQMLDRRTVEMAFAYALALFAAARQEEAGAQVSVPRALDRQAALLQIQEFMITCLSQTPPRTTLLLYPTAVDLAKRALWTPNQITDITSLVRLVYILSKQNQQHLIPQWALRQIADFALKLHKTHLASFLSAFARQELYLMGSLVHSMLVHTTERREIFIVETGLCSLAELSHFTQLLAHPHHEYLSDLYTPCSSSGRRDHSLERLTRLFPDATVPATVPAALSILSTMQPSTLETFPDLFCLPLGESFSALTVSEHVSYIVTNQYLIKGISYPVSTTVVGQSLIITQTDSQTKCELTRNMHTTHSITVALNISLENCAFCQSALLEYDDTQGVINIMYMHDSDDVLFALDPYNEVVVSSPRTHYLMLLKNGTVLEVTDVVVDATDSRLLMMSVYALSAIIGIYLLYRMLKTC

[2] = molecular target: T1, recombinant gH/gL/UL128/UL130/UL131A …; assay: as above; remark: listed apart in the source
[3] = molecular target: T2, recombinant gH/gL/UL128/UL130/UL131A pentamer (wild type) (Human cytomegalovirus VR1814 (gH strain …, UniProt Q6SW67;F5HCH8;PDB)); assay: ELISA; pentamer, trimer or pentamer mutant coated at 100 ng/well (carbonate bicarbonate buffer pH 7.4, overnight 4°C); purified antibodies in eight serial 3-fold dilutions from 1 μg/mL, 37°C 1 h; detected with goat anti-human IgG (H+L)-HRP
T2 construct: also called CMV pentamer; HCMV pentamer complex; source: HEK293F, cotransfected with gH, gL, UL128, UL130 and UL131A plasmids, purified (Ni-NTA, SEC); not shown: His6, C-terminal, kept; copies: + + + +
T2 sequence (F5HCH8 whole entry, looked up, chain 1 of 2): as the sequence (F5HCH8 whole entry, looked up, chain 1 of 2) above
T2 sequence (Q6SW67 whole entry, looked up, chain 2 of 2): as the sequence (Q6SW67 whole entry, looked up, chain 2 of 2) above

[4] = molecular target: T2, recombinant gH/gL/UL128/UL130/UL131A …; assay: SPR; Biacore X100, CM5 chip, RT, 1:1 binding model; methods: antibody (4 μg/mL) captured by anti-human Fc IgG to about 100 RU, pentamer or trimer in five 2-fold dilutions injected at 30 μL/min, 90 s association, 600 s dissociation (the legend of Fig. 5 tells the reverse orientation); remark: listed apart in the source

B1: MAb 9I6 (antibody, V domains shown)
VH: EVQLVQSGAEVKKPGESLKISCRESGDTFPAYWIAWVRQMPGKGLEWMGIIYPIDSETTYSPSFQGQVTISADKSINTAYLQWSSLKASDSAIYYCARGTSTGLREAFHIWGQGTMVTVSS
VL: DVVMTQSPLSLAVTLGQPAYISCRSSQSLGYSDGNTYLNWFQQRPGQSPRRLIYEVSNRDSGVPDRFSGSGSGTDFTLKISRVEAEDVGTYYCMQGTHWPPMCSFGQGTKLEIK
notes: source: 293F cells, transient transfection, purified (protein A)
Kd [1]: 0.484 nM | Kd [2]: 0.82 nM | koff [2]: 0.000139 s⁻¹ | kon [2]: 168000 M⁻¹ s⁻¹

B2: MAb 8I21 (antibody, V domains shown)
VH: LVELVESGGGVVQPGRSLRLSCAASGFTFSSDGMHWVRQSPGRGLEWVAFISSDGSTPYYADSVKGRFTISRDNSKNTLYLQMNSLRAEDTAMYFCAKDWALFRWLRTFDHWGQGTLVTVSS
VL: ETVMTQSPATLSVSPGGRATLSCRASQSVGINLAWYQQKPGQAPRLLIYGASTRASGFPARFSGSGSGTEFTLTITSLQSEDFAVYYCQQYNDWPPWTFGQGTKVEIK
notes: as for B1
binding result [3]: binds

B3: MAb MSL-109 (antibody, V domains shown)
VH: EEQVLESGGGLVKPGGSLRLSCAASGFTFSPYSVFWVRQAPGKGLEWVSSINSDSTYKYYADSVKGRFTISRDNAENSIFLQMNSLRAEDTAVYYCARDRSYYAFSSGSLSDYYYGLDVWGQGTLVTVSS
VL: DIVMTQSPLSLSVTPGEPASISCRSSQSLLHTNGYNYLDWYVQKPGQSPQLLIYLASNRASGVPDRFSGSGSGTDFTLKISRVETEDVGVYYCMQALQIPRTFGQGTKVEIK
notes: as for B1
Kd [4]: 1.33 nM | koff [4]: 0.00156 s⁻¹ | kon [4]: 1.17e+06 M⁻¹ s⁻¹
